Legend:
[1] = HPLC after single-step affinity purification; main peak at about 16 min is the self-assembled tetramer (self-association through the p63 SADA domain)
[2] = target: the molecule itself; assay: fluorescence correlation spectroscopy; dissociation of the self-assembled multimer after dilution from 500 nM to 0.5 nM, Cy3-175Lu-Bn-DOTA label, one-phase decay fit
Description: (§1) FIG. 4 depicts a summary of fluorescence correlation spectroscopy (FCS) experiment regarding the SADA domains used here. […] Measurements were taken with a Zeiss LSM 880 confocal microscope. Normalized autocorrelations functions G(T) were then plotted to determine the diffusion times for each SADA-BiDE over time. All samples were compared against a monomeric anti-GD2 BiDE.

[3] = target: the molecule itself; assay: fluorescence correlation spectroscopy; half-life of multimer dissociation, one-phase decay fit
Description: as §1

[4] = HPLC after single-step affinity purification; main peak at about 16 min is the self-assembled tetramer (self-association through the p53 SADA domain)
[5] = target: the molecule itself; assay: HPLC, traces normalized to peak intensity; main peak is the self-assembled multimer
IL-15 polypeptide = target: T1, IL-15 polypeptide (Homo sapiens (Human), UniProt P40933 49-162); assay: production of the SADA-Cytokine complex; no direct binding assay described
T1 construct: also called sIL15; soluble IL15
T1 sequence (P40933 49-162 limits assumed): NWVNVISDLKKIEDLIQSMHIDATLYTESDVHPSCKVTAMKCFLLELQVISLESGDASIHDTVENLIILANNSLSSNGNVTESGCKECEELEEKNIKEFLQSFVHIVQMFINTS

[6] = HPLC after single-step affinity purification; main peak at about 16 min is the self-assembled tetramer (self-association through the p73 SADA domain)

| Binder | % tetramer (HPLC purity, main peak) [1] | koff [2] | half-life [3] | % tetramer (HPLC purity, main peak) [4] | binding result [5] | binding result (IL-15 polypeptide) | % tetramer (HPLC purity, main peak) [6] |
| --- | --- | --- | --- | --- | --- | --- | --- |
| P63-BiDE (hu3F8-scFv, huC825-scFv, huP63-tet, GS linker, IgG3 spacer) (bispecific antibody, Self-assembles into a homo-tetramer of about 200 kDa; also called p63 SADA-BiDE) EIVMTQTPATLSVSAGERVTITCKASQSVSNDVTWYQQKPGQAPRLLIYSASNRYSGVPARFSGSGYGTEFTFTISSVQSEDFAVYFCQQDYSSFGCGTKLEIKRGGGGSGGGGSGGGGSGGGGSGGGGSGGGGSQVQLVESGPGVVQPGRSLRISCAVSGFSVTNYGVHWVRQPPGKCLEWLGVIWAGGITNYNSAFMSRLTISKDNSKNTVYLQMNSLRAEDTAMYYCASRGGHYGYALDYWGQGTLVTVSSGGGGSGGGGSGGGGSGGGGSHVQLVESGGGLVQPGGSLRLSCAASGFSLTDYGVHWVRQAPGKGLEWLGVIWSGGGTAYNTALISRFTISRDNSKNTLYLQMNSLRAEDTAVYYCARRGSYPYNYFDAWGCGTLVTVSSGGGGSGGGGSGGGGSQAVVTQEPSLTVSPGGTVTLTCGSSTGAVTASNYANWVQQKPGQCPRGLIGGHNNRPPGVPARFSGSLLGGKAALTLLGAQPEDEAEYYCALWYSDHWVIGGGTKLTVLGTPLGDTTHTSGRSPDDELLYLPVRGRETYEMLLKIKESLELMQYLPQHTIETYRQQQQQQHQHLLQKQGGSGGAPHHHHHH | 89.2% | 6.3e-05 s⁻¹ | 3.08 h | – | – | – | – |
| P53-BiDE (hu3F8-scFv, huC825-scFv, huP53-tet, GS linker, IgG3 spacer) (bispecific antibody, Self-assembles into a homo-tetramer of about 200 kDa; Its targets GD2 (ganglioside) and Bn-DOTA (hapten) are not proteins; only the self-association is recorded; also called p53 SADA-BiDE) EIVMTQTPATLSVSAGERVTITCKASQSVSNDVTWYQQKPGQAPRLLIYSASNRYSGVPARFSGSGYGTEFTFTISSVQSEDFAVYFCQQDYSSFGCGTKLEIKRGGGGSGGGGSGGGGSGGGGSGGGGSGGGGSQVQLVESGPGVVQPGRSLRISCAVSGFSVTNYGVHWVRQPPGKCLEWLGVIWAGGITNYNSAFMSRLTISKDNSKNTVYLQMNSLRAEDTAMYYCASRGGHYGYALDYWGQGTLVTVSSGGGGSGGGGSGGGGSGGGGSHVQLVESGGGLVQPGGSLRLSCAASGFSLTDYGVHWVRQAPGKGLEWLGVIWSGGGTAYNTALISRFTISRDNSKNTLYLQMNSLRAEDTAVYYCARRGSYPYNYFDAWGCGTLVTVSSGGGGSGGGGSGGGGSQAVVTQEPSLTVSPGGTVTLTCGSSTGAVTASNYANWVQQKPGQCPRGLIGGHNNRPPGVPARFSGSLLGGKAALTLLGAQPEDEAEYYCALWYSDHWVIGGGTKLTVLGTPLGDTTHTSGKPLDGEYFTLQIRGRERFEMFRELNEALELKDAQAGKEPGGSGGAPHHHHHH | – | 0.000112 s⁻¹ | 1.73 h | 94.4% | – | – | – |
| P63-Cytokine polypeptide (IL15Rα, huP63-tet, IgG3 spacer) (other, The full complex is described as 8 pairs of IL15Rα/IL15; also called SADA-Cytokine) ITCPPPMSVEHADIWVKSYSLYSRERYICNSGFKRKAGTSSLTECVLNKATNVAHWTTPSLKCIRTPLGDTTHTSGRSPDDELLYLPVRGRETYEMLLKIKESLELMQYLPQHTIETYRQQQQQQHQHLLQKQGGSGGAPHHHHHH | – | – | – | – | binds | binds | – |
| P73-Cytokine polypeptide (IL15Rα, huP73-tet, IgG3 spacer) (other, The full complex is described as 8 pairs of IL15Rα/IL15; also called SADA-Cytokine) ITCPPPMSVEHADIWVKSYSLYSRERYICNSGFKRKAGTSSLTECVLNKATNVAHWTTPSLKCIRTPLGDTTHTSGRHGDEDTYYLQVRGRENFEILMKLKESLELMELVPQPLVDSYRQQQQLLQRPGGSGGAPHHHHHH | – | – | – | – | binds | binds | – |
| P73-BiDE (hu3F8-scFv, huC825-scFv, huP73-tet, GS linker, IgG3 spacer) (bispecific antibody, Self-assembles into a homo-tetramer of about 200 kDa; also called p73 SADA-BiDE) EIVMTQTPATLSVSAGERVTITCKASQSVSNDVTWYQQKPGQAPRLLIYSASNRYSGVPARFSGSGYGTEFTFTISSVQSEDFAVYFCQQDYSSFGCGTKLEIKRGGGGSGGGGSGGGGSGGGGSGGGGSGGGGSQVQLVESGPGVVQPGRSLRISCAVSGFSVTNYGVHWVRQPPGKCLEWLGVIWAGGITNYNSAFMSRLTISKDNSKNTVYLQMNSLRAEDTAMYYCASRGGHYGYALDYWGQGTLVTVSSGGGGSGGGGSGGGGSGGGGSHVQLVESGGGLVQPGGSLRLSCAASGFSLTDYGVHWVRQAPGKGLEWLGVIWSGGGTAYNTALISRFTISRDNSKNTLYLQMNSLRAEDTAVYYCARRGSYPYNYFDAWGCGTLVTVSSGGGGSGGGGSGGGGSQAVVTQEPSLTVSPGGTVTLTCGSSTGAVTASNYANWVQQKPGQCPRGLIGGHNNRPPGVPARFSGSLLGGKAALTLLGAQPEDEAEYYCALWYSDHWVIGGGTKLTVLGTPLGDTTHTSGRHGDEDTYYLQVRGRENFEILMKLKESLELMELVPQPLVDSYRQQQQLLQRPGGSGGAPHHHHHH | – | 9.5e-05 s⁻¹ | 2.03 h | – | – | – | 90.2% |
| P53-Cytokine polypeptide (IL15Rα, huP53-tet, IgG3 spacer) (other, The full complex is described as 8 pairs of IL15Rα/IL15 (about 200 kDa); also called SADA-Cytokine) ITCPPPMSVEHADIWVKSYSLYSRERYICNSGFKRKAGTSSLTECVLNKATNVAHWTTPSLKCIRTPLGDTTHTSGKPLDGEYFTLQIRGRERFEMFRELNEALELKDAQAGKEPGGSGGAPHHHHHH | – | – | – | – | binds | binds | – |

From US20250295794A1 (Memorial Sloan Kettering, published 2025)
